The target of assay [1] is C3b (UniProt P01024). Description: SPR; AP C3 convertase formation: ~6,000 RU C3b amine-coupled on a CMD500M chip; FB (600 nM) + FD (100 nM) injected alone or mixed with analyte (9.6 uM); signal of the analyte alone subtracted; 25 C, PBS 0.005% Tween20, 1 mM MgCl2. (SPR reads the build-up and loss of mass on a sensor chip optically.)
Assay [2] deals with C3b (UniProt P01024). Description: SPR; C3b immobilised in two ways: biotin coupling (~1,500 RU on a streptavidin SAP chip) and amine coupling (~7,250 RU on a CMD500M chip); analytes flowed (FH18-20 constructs 0.16-40 or 0.63-40 uM, FHR-1 constructs 0.04-10 uM); 25 C, PBS 0.005% Tween20, 25 ul/min; 1:1 steady-state affinity fit; the printed ranges span both ways of immobilisation.

pKd: −log10 of the molar value.

With “FHR-1 (factor H-related protein 1, FHR-1*B, wild-type) (from UniProt Q03591 19-330) (natural protein)”, the decrease of the AP C3 convertase signal (FB + FD on C3b) with the analyte co-injected at 9.6 uM in the assay with C3b [1] was found to be 50%.
As a reminder, the pKd is −log10 of the Kd, conventionally taken in molar units. “FHR-1(SV) (from UniProt Q03591 19-330) (natural protein)”: the decrease of the AP C3 convertase signal (FB + FD on C3b) with the analyte co-injected at 9.6 uM with C3b [1] is 50%. In addition, in the assay with C3b [2], the negative logarithm of the Kd (pKd) was 5.82 to 5.85.

The values above are taken from article PMC7959842, “Deregulation of Factor H by Factor H-Related Protein 1 Depends on Sialylation of Host Surfaces” (Frontiers in Immunology, 2021).
